Measured values as given in publication PMC9080259, “Dual-cycle immobilization to reuse both enzyme and support by reblossoming enzyme–inorganic hybrid nanoflowers” (RSC Advances, 2018).

Key:
Assay in all cases: purified protein
purified protein [1] = substrate: CC(=O)Oc1ccc([N+](=O)[O-])cc1; format: biochemical, Moesziomyces antarcticus; conditions: free enzyme, PBS 100 mM pH 6.5, 37 °C, substrate of the kinetics taken from the activity assay
purified protein [2] = substrate: CCOC(=O)[C@H](CCCNC(=N)N)NC(=O)c1ccccc1; conditions: free enzyme, 37 °C, pH not told, substrate of the kinetics taken from the activity assay
purified protein [3] = substrate: CC(=O)Oc1ccc([N+](=O)[O-])cc1; format: biochemical, Thermomyces lanuginosus; conditions: free enzyme, PBS 100 mM pH 6.5, 37 °C, substrate of the kinetics taken from the activity assay

B1: Lipase B from Candida antarctica (CALB) (Moesziomyces antarcticus) (protein)
chain: LPSGSDPAFSQPKSVLDAGLTCQGASPSSVSKPILLVPGTGTTGPQSFDSNWIPLSTQLGYTPCWISPPPFMLNDTQVNTEYMVNAITALYAGSGNNKLPVLTWSQGGLVAQWGLTFFPSIRSKVDRLMAFAPDYKGTVLAGPLDALAVSAPSVWQQTTGSALTTALRNAGGLTQIVPTTNLYSATDEIVQPQVSNSPLDSSYLFNGKNVQAQAVCGPLFVIDHAGSLTSQFSYVVGRSALRSTTGQARSADYGITDCNPLPANDLTPEQKVAAAALLAPAAAAIVAGPKQNCEPDLMPYARPFAVGKRTCSGIVTP
For B1, the Km (purified protein [1]) was 6.36 ± 0.321 mM, the kcat (purified protein [1]) was 56.8 ± 2.73 s⁻¹ and the kcat/Km (purified protein [1]) was 8920 ± 23 M⁻¹ s⁻¹.

B2: Papain (Carica papaya) (protein)
chain: IPEYVDWRQKGAVTPVKNQGSCGSCWAFSAVVTIEGIIKIRTGNLNEYSEQELLDCDRRSYGCNGGYPWSALQLVAQYGIHYRNTYPYEGVQRYCRSREKGPYAAKTDGVRQVQPYNEGALLYSIANQPVSVVLEAAGKDFQLYRGGIFVGPCGNKVDHAVAAVGYGPNYILIKNSWGTGWGENGYIRIKRGTGNSYGVCGLYTSSFYPVKN
For B2, the Km (purified protein [2]) was 1.01 ± 0.05 mM, the kcat (purified protein [2]) was 2.67 s⁻¹ and the kcat/Km (purified protein [2]) was 2670 M⁻¹ s⁻¹.

B3: Lipase from Thermomyces lanuginosus (TLL) (Thermomyces lanuginosus) (protein)
chain: EVSQDLFNQFNLFAQYSAAAYCGKNNDAPAGTNITCTGNACPEVEKADATFLYSFEDSGVGDVTGFLALDNTNKLIVLSFRGSRSIENWIGNLNFDLKEINDICSGCRGHDGFTSSWRSVADTLRQKVEDAVREHPDYRVVFTGHSLGGALATVAGADLRGNGYDIDVFSYGAPRVGNRAFAEFLTVQTGGTLYRITHTNDIVPRLPPREFGYSHSSPEYWIKSGTLVPVTRNDIVKIEGIDATGGNNQPNIPDIPAHLWYFGLIGTCL
In the case of B3, the Km (purified protein [3]) is reported as 16.58 ± 0.793 mM, the kcat (purified protein [3]) is reported as 29.3 ± 1.26 s⁻¹ and the kcat/Km (purified protein [3]) is reported as 1770 ± 8 M⁻¹ s⁻¹.
